Test results published in the DeepSol protein solubility set.

assay: soluble on expression in E. coli; label from the status in PepcDB or PDB records

Row | Sequence | soluble on expression in E. coli
1 | SDLVGVASPEPGTAAAWGPSKCPWAIPQNTISCSLADVMSEQLAKELQLEEEAAVFPEVAVAEGPFITGENIDTSSDLMLAQMLQMEYDREYDAQLRREEKKFNGDSKVSISFENYRKVHPYEDSDSSEDEVDWQDTRDDPYRPAKPVPTPKKGFIGKGKDITTKHDEVVCGRKNTARMENFAPEFQVGDGIGMDLKLSNHVFNALKQHAYSEERRSARLHEKKEHSTAEKAVDPKTRLLMYKMVNSGMLETITGCISTGKESVVFHAYGGSMEDEKEDSKVIPTECAIKVFKTTLNEFKNRDKYIKDDFRFKDRFSKLNPRKIIRMWAEKEMHNLARMQRAGIPCPTVVLLKKHILVMSFIGHDQVPAPKLKEVKLNSEEMKEAYYQTLHLMRQLYHECTLVHADLSEYNMLWHAGKVWLIDVSQSVEPTHPHGLEFLFRDCRNVSQKGGVKEALSERELFNAVSGLNITADNEADFLAEIEALEKMNEDHVQKNGRKAASFLKDDGDPPLLYDE | soluble
2 | MPTPFRDLHNKSNASASSYETAWSSSFSSRRSTNNDSKSNLKEIKDEPISNLDESISILENNISMMSVSSPTPAYRTPARVIAREAPMTPGDRLLQKIEKEDERDMLRQLYPEMFDSNQKPRQKPKEVKKALKVESLSDYENDDKENVPPCGKPSKEKEEKKQRTKKIVISSDSEDDGNFENYLKTLREKPTEPAKPERKIPVKKDFVVDDDYISEESSEEESEEEEEDVDDEEYRESSPEVEAKISYSDRKQKKRPTDEEEWFLLSLSEKFSGPIHEDAKVYIKETSLRYKKHRESLLTRLQDILVRRIFSAIPSEKLKVIWNARLRKSAGQCRNHSNGNSTVEMSPVVCTTAERVRDTLIHELCHAATWVVDRLHKEGHGPGWKRWGARCSSVFKSLPFIERCHSYEIEAKFFYVCEKDGCDVEIKRQSKSLDTSRKACGRCFGRFILYRYCRRTNTRIRIEDPKAKPVGPILSNSSKPSPPAPRRIVSEHPEGFKEYSEEHYWKYTAQGLKHSDVMGKLLKEFKELKQL | not soluble
3 | MQYINIANRGVKSLSPYQAGKPIEELERELGISNIVKLASNENPFGFPESAKKAIFEQLDKLTRYPDANGFELKQTIAKKFGVQPNQITLGNGSNDLLELFAHTFATEGDEIMYSQYAFIVYPLVTKAINAIVKEIPAKNWGHDLQGFLTALSDKTKLIYIANPNNPTGNFLTSQEIEDFLAEVPENVIVVLDEAYTEFTRSEERVDSFSLLKKYSNLIISRSLSKAYGLAGLRIGYAVSNPEIADLLNRVRQPFNCNSLALTAAVAVMNDDKFVEKVAENNRIEMRRYEDFCQKNQLDYIPSKGNFITIDFKQPAAPIYDALLREGVIVRPIAGYGMPNHLRISIGLPEENDKFFTALSKVLKFA | not soluble
4 | MGSDKIHHHHHHMALKGKGQAKSPNVDDNPQLGLESEIPVAPRSKRQTRQAEEVQAKDPYLDSVKELDDVLLKFKKYSKSMSSIENKVFSSSGGCFKSKNERVNAYSFTCSSFADKIEEYSYDPANSFPYKRGVKLVLKESSIYVEVGADTDMYGICVDVCEFSSTAYVLPITNNFEGYLVTRNPSIKMGEILDINNNGVIIKAGGGPPTVINAYALSDSFTINFAPEDEHQDQARYPKQEYSINLIKVAIFGNRGLEKTVTPEAGG | not soluble
5 | MVKAVIFTDFDGTVTLEDSNDYLTDTLGFGKEKRLKVFEGVLDDTKSFRQGFMEMLESIHTPFPECIKILEKKIRLDPGFKDTFEWAQENDVPVIVVSSGMKPIIKVLLTRLVGQESIHKIDIVSNEVEIDAHDQWKIIYKDESPFGHDKSRSIDAYKKKFESTLKAGEQRPVYFYCGDGVSDLSAAKECDLLFAKRGKDLVTYCKKQNVPFHEFDTFKDILASMKQVLAGEKTVAELMEN | soluble
6 | MAHHHHHHMVGAMHDIQVGFLDRCSVFQFTLTCTVLDFQKVAEPQPKSPGSLPSSTRTAPNPNGEEVEKHINKEQYTVRCLGSEAYTEALKNYLDDGCIVRVIGRLKTTEVVDAGKKQPFPCIIVEQGRWSTVSLVHSLRKQRRDWQLQNILTSVATLE | not soluble
7 | MGSKVAGKKKTQNDNKLDNENGSQQRENINTKTLLKGNLKISNYKYLEVIQLEHAVTKLVESYNKIIELSPNLVAYNEAVNNQDRVPVQILPSLSRYQLKLAAELKTLHDLKKDAILTEITDYENEFDTEQKQPILQEISKADMEKLEKLEQVKREKREKIDVNVYENLNEKEDEEEDEGEDSYDPTKAGDIVKATKWPPKLPEIQDLAIRARVFIHKSTIKDKVYLSGSEMINAHNERLEFLGDSILNSVMTLIIYNKFPDYSEGQLSTLRMNLVSNEQIKQWSIMYNFHEKLKTNFDLKDENSNFQNGKLKLYADVFEAYIGGLMEDDPRNNLPKIRKWLRKLAKPVIEEATRNQVALEKTDKLDMNAKRQLYSLIGYASLRLHYVTVKKPTAVDPNSIVECRVGDGTVLGTGVGRNIKIAGIRAAENALRDKKMLDFYAKQRAAIPRSESVLKDPSQKNKKRKFSDTS | soluble
8 | MKQADELRFNEDGLIPAIVQDAASKEVLTLAYMNKESYEKTLETKETWFYSRSRQALWHKGETSGNTQAVKGIRYDCDQDALLVLVEPSGPACHTGSYSCFTKEQTEEQAADRFGIMNELERVIAERQAEMPEGAYTTYLFREGVDKILKKVGEEASEVIIAAKNRDHEELKWEAADLLYHLLVLLREQSLPLDDVLDVLKKRHSEIEELEHHHHHH | not soluble
9 | MGSDKIHHHHHHAEPVADPMEEEGISVVRYDKLLDEYVRFNSFSALQKMNLEYALPTKLLIEDVLAIGQVSDDHIFQRLKTFYSDTTLVRLIEDVEAKYPELESVEKNLTKGFGKLQKEIPDIMIPMIYTQISAFNESIVLSDSVLGISLDKYMGEDYPLYKRFYYNYQRRTMRPDRIVPDCLVFYLMSQYPFPMDYSRTLLDVMMHYGKINYVVQHLLDYSSSEEALGYSDLEREWCKENQQQMWRYILEQDHLHATDPMVVRQYTRPAPFTNTLGENAPSMVGTWIGTKIITSYMKHHKKTTLRQLLEMSDYERMFTESRFNP | not soluble
10 | MTIYLVRHGESKSNYDNKHFRSYFCGQLDVPLTDTGTKSADDLCDYFKEKQIKHVYVSDLLRTQQTFEHIFPYDIASTTTPLLRERSLGVFEGEYKDEISANPKYEKYFNDPNFKDFRHSFSQKAPEGESYEDVYQRVEHFMNHVVNEDTQKDDIVIVAHQVVIRCLMVYFNKVSRAEAVDLKVENCKPYIIE | not soluble
11 | MSLTTLNIGLILPDVLGTYGDDGNALVLRQRARMRGINAEIQRVTLDDAVPSTLDLYCLGGGEDTAQILATEHLTKDGGLQTAAAAGRPIFAVCAGLQVLGDSFRAAGRVIDGLGLIDATTVSLQKRAIGEVETTPTRAGFTAELTERLTGFENHMGATLLGPDAEPLGRVVRGEGNTDVWAASENTDDQRQQFAEGAVQGSIIATYMHGPALARNPQLADLMLAKAMGVALKDLEPLDIDVIDRLRAERLAEGHHHHHH | soluble
12 | MRKLLVSLVLLIFSENVTANRVEQVHLSLSGKMDEMVVTWLTQGPLPNVTPYVMYGLSKDALRWTAKATTTSWKDQGSHGYVRYTHRATMTKMVPGDTYYYKVGSSQDMSDVYHFHQPDPTQPLRAAIFGDLSVYKGAPSIKQLTDATHDNHFDVIIHIGDIAYDLHDDEGNRGDDYMNAVQPFAAYVPYMVFAGNHESDSHFNQIINRFTMPKNGVYDNNLFWSFDYGLTHFIGLNSEYYAEIHTKEAQAQYKWLQADLAKNKAQWTIVMFHRPWYCSTKDKGGCNDYLDMLSRKGNSELPGLEKLLFDHKVDMVLYGHKHTYERMWPIYDGTGYKSSDSGHIRNAKAPVYILTGSAGCHTHEGPSDAPQSFSATRLGQYGYTRLKVYNTTHLSTYFVDTSDKVGNFMDKFYLEKD | soluble
13 | MGSDKIHHHHHHMDSFHSFNQHAFNRHAKTYHLFAHIQQQIAICLVQFLKQKHYAKVLDLGSGSGAVFNALERQNILIEEFIALDNSINMLKLHPTHSINIQKISLEHADFEEHVFCTYDLVVSSSSLQWARDLKSVLEKIALSSKEVALAIHTDFSLHEVHEFLGTPSPLRDLKTLKSLIKNAFKHFQIELENKRFALYFNRKQDCLNYLKKCGLLGGSTLSFKQKKHFFQNMAFEKLSYEVLLFSGIKRS | not soluble
14 | GQELPPGTYRVDIYLNNGYMATRDVTFNTGDSEQGIVPCLTRAQLASMGLNTASVAGMNLLADDACVPLTTMVQDATAHLDVGQQRLNLTIPQAFMSNRARGYIPPELWDPGINA | soluble
15 | MGSDKIHHHHHHMHCGIDYGTSNSSLGIVKDGKVVQAELERNSVYLPSAIYRAFPEHELNDDIASRSIRQQLGSAQGLLYGSEAIEAYVRHPGDGLFMKSPKVFLGSDLSKDQMDFFQIVIAKMMTHILERAREFYGQELRQAVIGRPIRYHGIRGEEGDKQALAIMEHAAAGAGLEEVVFMYEPLAAALDYEQCLDRDEVLLVVDVGGGTTDCSVVKVGPSYRDKRERSDDLLAYSGNRIGGVDLDINLGWHTIMPLFGRGTDELHNKAFDAITVNSIPSQQAFYSRFEMPVHAQADTVRERLYRVWLDKLSSHLVRSAELAKIELSRRTSHVLELGYVEDGLEVHVSREDFRQAIARSAEKIRQVIDDARQASASRPDKIYLTGGSAVSPVIQQVIREVVGDAVPFVSGNMHGSVACGLSVFANRHFA | not soluble
16 | MGSDKIHHHHHHMKADFDVLIIGAGLSGIGMACHLAEACPDKRVGILERRSAIGGTWDLFRYPGIRSDSDMFSFGYKFRPWHELKVLADGPAIRRYIADTAREYGVDKSIRFGLKVLRASWSSEDRSWTVTVQQEDSHETHSLTCKFLISCTGYYNYDHGYRPDFTGLERFQGICVHPQHWPQDLDYHGKRVIVIGSGATAVTLVPSMAGKASHVTMLQRSPSYVFSVPAYDKISAVLQKMLPASWVFGLARWRNIRLQRFIYRAARRWPQRVRAWLLSHVEQQLGHGADLRHFSPEYNPWDQRLCAVPDGDLFKAIREGKASVVTDQIDTFTETGVRLKSGRRLDADIIVTATGLQLQSLGGMEVQVDGQPRHASSLMTYKSVLMQDVPNMAHLFGYTNAPWTLKVDLAASYICRLLDHMDRHEYEVVTPGAPAGEMLDETVMDSLQSGYVQRGRNVLPRQGRKLPWRVVHNFEADRDMLTRHPVSDPALAFVRAATTARTGKASELVATRMDGTAV | not soluble
17 | MGSDKIHHHHHHDGMGLSQVYLTSMLEGRPLSFMKTPYIGLVKTHSANSWVTDSAAAGTALASGFKTNNGMINILPDGTVVPTIFEVAKTYGVRTGIVVTCRVTHATPAAFYAHVKSRDEENEIARQLVENETVDVVMGGGWANFLPKDLGGKRDDNLNLIELAKEKGYIYVKTREELSKISADSDKILALFAPSHLDPASSRKEQPMLYEMVEKALEILSKDDEPFFLMVEGSQIDWEAHDNDIYGVWKEVVEFDKAVQVALDFALKRGDTLVIVTADHETGGLGLSSGDYRVDVDKIRNFKKTTDWIMANYSPKDREKFKKAIEEYFGLTLSDEDLNRISMSKNPKIELGRILGEKVSVGWTTTTHSGTPVPIFAFGPGAENFTGFLDNTEIPRIIMKLTGYSLQYPLLKEPVTK | not soluble
18 | MITLAVDAMGGDQGLAVTVPGATAFLQAHPDVRLIMTGDETQLRQALTAAGAPMERIDICHTTQVVGMDEAPQSALKNKKDSSMRVAINQVKEGKAQAAVSAGNTGALMATARFVLKTIPGIERPAIAKFLPSDTDHVTLALDLGANVDCTSEQLAQFAVIGSELVHALHPQKGQPRVGLVNVGTEDIKGTDTVKQTYKLLQNSKLNFIGNIESNGILYGEADVVVADGFVGNVMLKTIEGAVKFMSGAIRREFQSNLFNKLAAVAALPALKGLKNKLDPRKFNGAILLGLRGIVIKSHGGTDETGFRYALEEAYHEAKSAGLSKIEQGVAEQLAALETAKAVQNENVGGL | not soluble
19 | GMSQTTVVNGVNVDQLMATIEQIKAKPEIAQFKFRATNQWMGGTHNQATIKDFYGACAEDDTRKPMVFDLDEPPVLLGENRGANPVEYLLVALSGCLTTSLVAHAAARGIALRGVKSRYEGDIDLRGFLGLSEEVPVGYREIRVFFSIDADLTDGQKEELIRMAQKYSPVYNTVAKPVPVAVLLDRG | soluble
